Source: paper PMC11134608 (2023)
One block for each binder: values may come before it. No end group written: not given here. fluorescein = fluorescein (FAM) fluorescent label

Experiments:
[1] = target: T1, RARA/RXRA heterodimer (ligand-binding domains) (UniProt P10276 175-421; P19793 224-462); test: FP; Kapp, competition with fluorescein-NCOA1 peptide, + ATRA
T1 chain 1: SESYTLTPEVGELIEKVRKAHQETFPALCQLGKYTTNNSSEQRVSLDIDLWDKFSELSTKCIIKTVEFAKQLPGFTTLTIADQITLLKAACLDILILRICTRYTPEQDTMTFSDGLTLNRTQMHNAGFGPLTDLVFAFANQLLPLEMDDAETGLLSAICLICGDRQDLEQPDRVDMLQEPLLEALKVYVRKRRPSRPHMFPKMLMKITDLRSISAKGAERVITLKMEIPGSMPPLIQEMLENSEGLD
T1 chain 2: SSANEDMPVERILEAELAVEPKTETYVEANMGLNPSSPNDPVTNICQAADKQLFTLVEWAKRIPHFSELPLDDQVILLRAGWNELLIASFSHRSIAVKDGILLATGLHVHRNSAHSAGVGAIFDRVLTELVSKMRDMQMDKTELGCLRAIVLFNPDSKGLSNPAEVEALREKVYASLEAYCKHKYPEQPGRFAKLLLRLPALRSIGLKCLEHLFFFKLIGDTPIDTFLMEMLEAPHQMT

[2] = target: T1, RARA/RXRA heterodimer (ligand-binding …); test: FP; + DMSO (no ATRA)
[3] = target: T1, RARA/RXRA heterodimer (ligand-binding …); test: FP; + ATRA

apparent binding constant (Kapp) [1]: 3.1 µM
Binder: RLDLLYRLLTATN [UBR5 aa1251]

apparent binding constant (Kapp) [1]: 41.4 µM
Binder: LQPYLRELLSAKD [UBR5 aa1098]

Kd [2]: 5.5 µM | Kd [3]: 0.69 µM
Binder: fluorescein-ARHKILHRLLQEGS [Fluorescein-labelled NCOA1 peptide residues 687–698 (Flc-ARHKILHRLLQEGS)]

apparent binding constant (Kapp) [1]: 3.7 µM
B1: NCOA1 aa686 (peptide)
chain: ARHKILHRLLQEGS
modifications: unlabelled competitor; the tracer form carries N-terminal fluorescein. The text prints limits 687-698 for a 14-mer; the LXXLL motif at 690-694 places RHKILHRLLQEGS at 686-698, with an extra N-terminal Ala in the printed peptide
